The results in this text go back to patent US20110008351A1 (UNIVERSITE LIBRE DE BRUXELLES, published 2011).

This experiment addresses T1, purified human properdin (human, UniProt P27918 28-469).
T1 construct: also called factor P
As to the kind of experiment: ELISA, properdin coated, normalized 293T supernatants, anti-V5 detection. (In general: ELISA stands for enzyme-linked immunosorbent assay.)

T1 sequence (P27918 28-469 limits assumed): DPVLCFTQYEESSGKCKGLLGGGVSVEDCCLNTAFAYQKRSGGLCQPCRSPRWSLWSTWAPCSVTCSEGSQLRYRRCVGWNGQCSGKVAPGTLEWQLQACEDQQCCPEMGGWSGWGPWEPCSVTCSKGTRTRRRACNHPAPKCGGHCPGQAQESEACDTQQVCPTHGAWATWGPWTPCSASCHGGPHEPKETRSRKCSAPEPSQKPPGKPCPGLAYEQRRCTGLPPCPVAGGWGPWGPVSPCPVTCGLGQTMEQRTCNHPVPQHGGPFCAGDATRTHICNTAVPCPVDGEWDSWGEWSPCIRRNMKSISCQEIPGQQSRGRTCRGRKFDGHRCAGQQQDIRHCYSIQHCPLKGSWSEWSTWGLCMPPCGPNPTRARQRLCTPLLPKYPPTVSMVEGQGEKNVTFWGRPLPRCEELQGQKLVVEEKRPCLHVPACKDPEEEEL

B1: recombinant Rhipicephalus appendiculatus histamine-binding protein 2 (RaHBP2) (other, UniProt O77421 20-190, looked up, not shown: small tags and cut ends)
chain: NQPDWADEAANGAHQDAWKSLKADVENVYYMVKATYKNDPVWGNDFTCVGVMANDVNEDEKSIQAEFLFMNNADTNMQFATEKVTAVKMYGYNRENAFRYETEDGQVFTDVIAYSDDNCDVIYVPGTDGNEEGYELWTTDYDNIPANCLNKFNEYAVGRETRDVFTSACLE
notes: Negative control, supernatant of transfected 293T cells
Regarding B1, the binding result is “no binding”.
